# According to patent US12269859B2, “Synthetic immune receptors and methods of use thereof” (Angeles Therapeutics, Inc., priority 2016, dated 2025):
# Test system: target antigen-expressing cell line
# Assay: Jurkat NFAT-GFP assay, coculture with target cell lines expressing the respective target antigen (summary Table 10A)
# Format: cell-based, human
# Set-up: key: The signs +/−, +, 2+ etc. after the name of the cell lines indicate the relative degree of positivity on the Jurkat-NFAT-GFP assay as measured by the % GFP positive cells; +: relative degree of positivity on the Jurkat-NFAT-GFP assay as measured by the % GFP positive cells; 2+: relative degree of positivity on the Jurkat-NFAT-GFP assay as measured by the % GFP positive cells
# Conditions: relative % GFP positive cells; for NFAT-GFP ASSAY Positive Cell lines: RAJI: SIR-expressing Jurkat-NFAT-GFP cells cocultured with RAJI; for NFAT-GFP ASSAY Positive Cell lines: LAN5: SIR-expressing Jurkat-NFAT-GFP cells cocultured with LAN5
# In short: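 Readout is % GFP+ cells by FACS, graded +/− to 2+ relative to parental reporter cells. Jurkat-NFAT-GFP cells stably transduced with SIR constructs (puromycin-selected) were mixed with target-antigen-expressing cell lines at roughly 1:2 effector:target and cocultured ~4–18 h.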
Molecule,NFAT-GFP ASSAY Positive Cell lines: RAJI,NFAT-GFP ASSAY Positive Cell lines: LAN5
"052316-D03 (protein, Synthetic Immune Receptor (SIR)) MALPVTALLLPLALLLHAARPDEIVLTQSPATLSLSPGERATLSCSASSSVSYMHWYQQKPGQAPRLLIYDTSKLASGIPARFSGSGSGTDFTLTISSLEPEDVAVYYCFQGSVYPFTFGQGTKLEIKRGGGGSGGGGSGGGGSQVQLQESGPGLVKPSQTLSLTCTVSGGSISTSGMGVGWIRQHPGKGLEWIGHIWWDDDKRYNPALKSRVTISVDTSKNQFSLKLSSVTAADTAVYYCARMELWSYYFDYWGQGTLVTVSSLEDLKNVFPPEVAVFEPSEAEISHTQKATLVCLATGFYPDHVELSWWVNGKEVHSGVSTDPQPLKEQPALNDSRYCLSSRLRVSATFWQNPRNHFRCQVQFYGLSENDEWTQDRAKPVTQIVSAEAWGRADCGFTSESYQQGVLSATILYEILLGKATLYAVLVSALVLMAMVKRKDSRGRAKRSGSGATNFSLLKQAGDVEENPGPTSMDWIWRILFLVGAATGAHSFEGSGTREQKLISEEDGSGIQNPDPAVYQLRDSKSSDKSVCLFTDFDSQTNVSQSKDSDVYITDKCVLDMRSMDFKSNSAVAWSNKSDFACANAFNNSIIPEDTFFPSPESSCDVKLVEKSFETDTNLNFQNLSVIGFRILLLKVAGFNLLMTLRLWSSRAKRSGSGVKQTLNFDLLKLAGDVESNPGPSRGHMTEYKPTVRLATRDDVPRAVRTLAAAFADYPATRHTVDPDRHIERVTELQELFLTRVGLDIGKVWVADDGAAVAVWTTPESVEAGAVFAEIGPRMAELSGSRLAAQQQMEGLLAPHRPKEPAWFLATVGVSPDHQGKGLGSAVVLPGVEAAERAGVPAFLETSAPRNLPFYERLGFTVTADVEVPEGPRTWCMTRKPGA",RAJI (+),–
"121515-X07 (protein, Synthetic Immune Receptor (SIR)) MALPVTALLLPLALLLHAARPLEGKPIPNPLLGLDSTGSGEDLKNVFPPEVAVFEPSKAEIAHTQKATLVCLATGFYPDHVELSWWVNGKEVHSGVCTDPQPLKEQPALNDSRYCLSSRLRVSATFWQNPRNHFRCQVQFYGLSENDEWTQDRAKPVTQIVSAEAWGRADCGITSASYHQGVLSATILYEILLGKATLYAVLVSALVLMAMVKRKDSRGRAKRSGSGATNFSLLKQAGDVEENPGPTSTMALPVTALLLPLALLLHAARPDEIVLTQSPATLSLSPGERATLSCSASSSVSYMHWYQQKPGQAPRLLIYDTSKLASGIPARFSGSGSGTDFTLTISSLEPEDVAVYYCFQGSVYPFTFGQGTKLEIKRGGGGSGGGGSGGGGSQVQLQESGPGLVKPSQTLSLTCTVSGGSISTSGMGVGWIRQHPGKGLEWIGHIWWDDDKRYNPALKSRVTISVDTSKNQFSLKLSSVTAADTAVYYCARMELWSYYFDYWGQGTLVTVSSTREQKLISEEDLGSGTPFPSLAPPIMLLVDGKQQMVVVCLVLDVAPPGLDSPIWFSAGNGSALDAFTYGPSPATDGTWTNLAHLSLPSEELASWEPLVCHTGPGAEGHSRSTQPMHLSGEASTARTCPQEPLRGTPGGALWLGVLRLLLFKLLLFDLLLTCSCLCDPAGPLPSPATTTRLRALGSHRLHPATETGGREATSSPRPQPRDRRWGDTPPGRKPGSPVRAKRSGSGVKQTLNFDLLKLAGDVESNPGPSRGHMTEYKPTVRLATRDDVPRAVRTLAAAFADYPATRHTVDPDRHIERVTELQELFLTRVGLDIGKVWVADDGAAVAVWTTPESVEAGAVFAEIGPRMAELSGSRLAAQQQMEGLLAPHRPKEPAWFLATVGVSPDHQGKGLGSAVVLPGVEAAERAGVPAFLETSAPRNLPFYERLGFTVTADVEVPEGPRTWCMTRKPGA",RAJI (+),–
"042916-D02 (protein, Synthetic Immune Receptor (SIR)) MALPVTALLLPLALLLHAARPLEGKPIPNPLLGLDSTGSGEDLKNVFPPEVAVFEPSKAEIAHTQKATLVCLATGFYPDHVELSWWVNGKEVHSGVCTDPQPLKEQPALNDSRYCLSSRLRVSATFWQNPRNHFRCQVQFYGLSENDEWTQDRAKPVTQIVSAEAWGRADCGITSASYHQGVLSATILYEILLGKATLYAVLVSALVLMAMVKRKDSRGRAKRSGSGATNFSLLKQAGDVEENPGPTSTMALPVTALLLPLALLLHAARPDVQMIQTPSSLSASLGDRVTISCRASQDIGNYLNWYQQKPDGTVKLLIYYTSRLHSGVPSRFSGSGSGTEYSLTISNLEQEDIATYFCQQGSALPPTFGGGTKLEINGGGGSGGGGSGGGGSALQLQQSGAELVRPGASVTLSCKASGYTFTDYEMHWVKQTPVHGLEWIGAIDPETGGTAYNQKFEGKAILTADKSSSTAYMELRSLTSEDSPVYYCARRRYYGSSSFDYWGQGTTLTVSSTREQKLISEEDGSGIQNPDPAVYQLRDSKSSDKSVCLFTDFDSQTNVSQSKDSDVYITDKCVLDMRSMDFKSNSAVAWSNKSDFACANAFNNSIIPEDTFFPSSDVPCDVKLVEKSFETDTNLNFQNLSVIGFRILLLKVAGFNLLMTLRLWSSRAKRSGSGVKQTLNFDLLKLAGDVESNPGPSRGHMTEYKPTVRLATRDDVPRAVRTLAAAFADYPATRHTVDPDRHIERVTELQELFLTRVGLDIGKVWVADDGAAVAVWTTPESVEAGAVFAEIGPRMAELSGSRLAAQQQMEGLLAPHRPKEPAWFLATVGVSPDHQGKGLGSAVVLPGVEAAERAGVPAFLETSAPRNLPFYERLGFTVTADVEVPEGPRTWCMTRKPGA",–,LAN5 (2+)
"052316-J03 (protein, Synthetic Immune Receptor (SIR)) MALPVTALLLPLALLLHAARPDEIVLTQSPATLSLSPGERATLSCSASSSVSYMHWYQQKPGQAPRLLIYDTSKLASGIPARFSGSGSGTDFTLTISSLEPEDVAVYYCFQGSVYPFTFGQGTKLEIKRGGGGSGGGGSGGGGSQVQLQESGPGLVKPSQTLSLTCTVSGGSISTSGMGVGWIRQHPGKGLEWIGHIWWDDDKRYNPALKSRVTISVDTSKNQFSLKLSSVTAADTAVYYCARMELWSYYFDYWGQGTLVTVSSTREQKLISEEDGSGIQNPDPAVYQLRDSKSSDKSVCLFTDFDSQTNVSQSKDSDVYITDKTVLDMRSMDFKSNSAVAWSNKSDFACANAFNNSIIPEDTFFPSPESSCDVKLVEKSFETDTNLNFQNLSVIGFRILLLKVAGFNLLMTLRLWSSRAKRSGSGVKQTLNFDLLKLAGDVESNPGPSRGHMTEYKPTVRLATRDDVPRAVRTLAAAFADYPATRHTVDPDRHIERVTELQELFLTRVGLDIGKVWVADDGAAVAVWTTPESVEAGAVFAEIGPRMAELSGSRLAAQQQMEGLLAPHRPKEPAWFLATVGVSPDHQGKGLGSAVVLPGVEAAERAGVPAFLETSAPRNLPFYERLGFTVTADVEVPEGPRTWCMTRKPGA",RAJI (+),–
"042916-C05 (protein, Synthetic Immune Receptor (SIR)) MALPVTALLLPLALLLHAARPLEGKPIPNPLLGLDSTGSGEDLKNVFPPEVAVFEPSKAEIAHTQKATLVCLATGFYPDHVELSWWVNGKEVHSGVCTDPQPLKEQPALNDSRYCLSSRLRVSATFWQNPRNHFRCQVQFYGLSENDEWTQDRAKPVTQIVSAEAWGRADCGITSASYHQGVLSATILYEILLGKATLYAVLVSALVLMAMVKRKDSRGRAKRSGSGATNFSLLKQAGDVEENPGPTSTMALPVTALLLPLALLLHAARPDVQMIQTPDSLAVSLGQRATISCRASESVDNYGISFMHWYQQKPGQSPKLLIYRASNLESGIPARFSGSGSRTDFTLTINPVETDDVATYYCQQNNKDPPTFGGGTKLEIKGGGGSGGGGSGGGGSGGGGSQVQLQQSGAELVKPGASVKISCKASGYAFSSYWMNWVKQRPGKGLEWIGQIYPGDGDTTYNGKFKGKATLTADKSSSTVYMQLNSLTSEDSAVYFCVRYYYGSSGYFDYWGQGTTLTVSSTREQKLISEEDGSGIQNPDPAVYQLRDSKSSDKSVCLFTDFDSQTNVSQSKDSDVYITDKCVLDMRSMDFKSNSAVAWSNKSDFACANAFNNSIIPEDTFFPSSDVPCDVKLVEKSFETDTNLNFQNLSVIGFRILLLKVAGFNLLMTLRLWSSRAKRSGSGVKQTLNFDLLKLAGDVESNPGPSRGHMTEYKPTVRLATRDDVPRAVRTLAAAFADYPATRHTVDPDRHIERVTELQELFLTRVGLDIGKVWVADDGAAVAVWTTPESVEAGAVFAEIGPRMAELSGSRLAAQQQMEGLLAPHRPKEPAWFLATVGVSPDHQGKGLGSAVVLPGVEAAERAGVPAFLETSAPRNLPFYERLGFTVTADVEVPEGPRTWCMTRKPGA",–,LAN5 (+/−)
"060816-H05 (protein, Synthetic Immune Receptor (SIR)) MALPVTALLLPLALLLHAARPDEIVLTQSPATLSLSPGERATLSCSASSSVSYMHWYQQKPGQAPRLLIYDTSKLASGIPARFSGSGSGTDFTLTISSLEPEDVAVYYCFQGSVYPFTFGQGTKLEIKRGGGGSGGGGSGGGGSQVQLQESGPGLVKPSQTLSLTCTVSGGSISTSGMGVGWIRQHPGKGLEWIGHIWWDDDKRYNPALKSRVTISVDTSKNQFSLKLSSVTAADTAVYYCARMELWSYYFDYWGQGTLVTVSSTREQKLISEEDGSGTPFPSLAPPIMLLVDGKQQMVVVCLVLDVAPPGLDSPIWFSAGNGSALDAFTYGPSPATDGTWTNLAHLSLPSEELASWEPLVCHTGPGAEGHSRSTQPMHLSGEASTARTCPQEPLRGTPGGALWLGVLRLLLFKLLLFDLLLTCSCLCDPAGPLPSPATTTRLRALGSHRLHPATETGGREATSSPRPQPRDRRWGDTPPGRKPGSPVRAKRSGSGVKQTLNFDLLKLAGDVESNPGPSRGHMTEYKPTVRLATRDDVPRAVRTLAAAFADYPATRHTVDPDRHIERVTELQELFLTRVGLDIGKVWVADDGAAVAVWTTPESVEAGAVFAEIGPRMAELSGSRLAAQQQMEGLLAPHRPKEPAWFLATVGVSPDHQGKGLGSAVVLPGVEAAERAGVPAFLETSAPRNLPFYERLGFTVTADVEVPEGPRTWCMTRKPGA",RAJI (+),–
